Data as given in patent publication US20050123549A1 (IMMUNOGEN, published 2005).

Key:
[1] = target: T1, Muc1 mucin carrying the CA6 sialoglycotope (human, UniProt P15941 24-1255, sialylated O-linked carbohydrate carrying the CA6 epitope; positions not stated); assay: flow cytometry on Caov-3 cells
T1 construct: whole, on cells; Target of DS6 on CA6-positive human cell lines (flow cytometry) and in their lysates (dot blots, immunoprecipitation); also called CA6 antigen; DS6 antigen

[2] = target: T1, Muc1 mucin carrying the CA6 …; assay: flow cytometry on HPAC cells, apparent Kd
Procedure: (§1) Human cell lines were obtained from the American Type Culture Collection (ATCC) with the exception of OVCAR5 (Kearse et al., Int. J. Cancer 88(6):866-872 (2000)), OVCAR8 and IGROV1 cells (M. Seiden, Massachusetts General Hospital). All cells were grown in RPMI 1640 supplemented with 4 mM L-glutamine, 50 U/ml penicillin, 50 μg/ml streptomycin (Cambrex Bio Science, Rockland, Me.) and 10% v/v fetal bovine serum (Atlas Biologicals, Fort Collins, Colo.), referred hereafter as culture media. Cells were maintained in a 37° C., 5% CO₂ humidified incubator.
(§2) Cells ([…]) were incubated, on ice for 3-4 h, with serially diluted concentrations of the DS6 antibody prepared in FACS buffer (2% goat serum, RPMI) into 96-well plates. The cells were spun down in a table top centrifuge at 1500 rpm for 5 min at 4° C. After removing the media, the wells were then refilled with 150 μl of FACS buffer. The wash step was then repeated. FITC-labeled goat anti-mouse IgG (Jackson Immunoresearch) was diluted 1:100 to FACS buffer and incubated with the cells for 1 h on ice. The plate was covered in foil to prevent photobleaching of the signal. After two washes, the cells were fixed with 1% formaldehyde and analyzed on a flow cytometer.

[3] = target: T1, Muc1 mucin carrying the CA6 …; assay: flow cytometry on HeLa cells, apparent Kd
[4] = target: T1, Muc1 mucin carrying the CA6 …; assay: flow cytometry on MCF7 cells, apparent Kd
[5] = target: T1, Muc1 mucin carrying the CA6 …; assay: flow cytometry on HPAC cells, apparent Kd; remark: listed apart in the source
Procedure: as §2

[6] = target: T1, Muc1 mucin carrying the CA6 …; assay: flow cytometry on HeLa cells, apparent Kd; remark: listed apart in the source
Procedure: as §2

[7] = target: T1, Muc1 mucin carrying the CA6 …; assay: flow cytometry on BT-20 cells, apparent Kd
Procedure: as §1, §2

[8] = target: T1, Muc1 mucin carrying the CA6 …; assay: flow cytometry on T-47D cells, apparent Kd
Procedure: as §1, §2

[9] = target: T1, Muc1 mucin carrying the CA6 …; assay: flow cytometry on BT-483 cells, apparent Kd
Procedure: as §2

[10] = target: T1, Muc1 mucin carrying the CA6 …; assay: flow cytometry on BxPC-3 cells, apparent Kd
Procedure: as §1, §2

[11] = target: T1, Muc1 mucin carrying the CA6 …; assay: flow cytometry on CAMA-1 cells, apparent Kd
Procedure: as §1, §2

[12] = target: T1, Muc1 mucin carrying the CA6 …; assay: flow cytometry on Caov-4 cells, apparent Kd
Procedure: as §2

[13] = target: T1, Muc1 mucin carrying the CA6 …; assay: flow cytometry on OVCAR5 cells, apparent Kd
Procedure: as §1, §2

[14] = target: T1, Muc1 mucin carrying the CA6 …; assay: flow cytometry on Caov-3 cells, apparent Kd
[15] = target: T1, Muc1 mucin carrying the CA6 …; assay: flow cytometry on OVCAR5 cells, apparent Kd; remark: listed apart in the source
Procedure: as §2

[16] = target: T1, Muc1 mucin carrying the CA6 …; assay: flow cytometry on HPAF-II cells, apparent Kd
Procedure: as §1, §2

[17] = target: T1, Muc1 mucin carrying the CA6 …; assay: flow cytometry on TOV-21G cells, apparent Kd
Procedure: as §1, §2

[18] = target: T1, Muc1 mucin carrying the CA6 …; assay: flow cytometry on T-47D cells, FITC anti-mouse IgG
Procedure: (§3) The fluorescence of cell lines incubated with the DS6 primary antibody and FITC conjugated anti-mouse IgG(H+L) secondary antibodies was measured by flow cytometry.
as §2

[19] = target: T1, Muc1 mucin carrying the CA6 …; assay: flow cytometry on Caov-3 cells, FITC anti-mouse IgG
Procedure: as §3, §2

[20] = target: T1, Muc1 mucin carrying the CA6 …; assay: competition flow cytometry on WISH cells; competitor 2 nM biotin-muDS6, streptavidin-DTAF
Procedure: To confirm that the huDS6 versions retains the affinity of muDS6, competitive binding experiments were conducted. […] In some cases, the experimentally measured apparent Kd can vary simply because of the secondary reagent used to indirectly detect binding.

B1: murine DS6 anti-CA6 monoclonal antibody (antibody, IgG1, V domains shown)
VH: QAYLQQSGAELVRSGASVKMSCKASGYTFTSYNMHWVKQTPGQGLEWIGYIYPGNGATNYNQKFKGKATLTADPSSSTAYMQISSLTSEDSAVYFCARGDSVPFAYWGQGTLVTVSA
VL: QIVLTQSPAIMSASPGEKVTITCSAHSSVSFMHWFQQKPGTSPKLWIYSTSSLASGVPARFGGSGSGTSYSLTISRMEAEDAATYYCQQRSSFPLTFGAGTKLELKR
notes: Whole murine monoclonal IgG from the DS6 hybridoma (ATCC PTA-4449); the 3' heavy chain cloning primer was BamIgG1 and the light chain primer was kappa; also called DS6 antibody; muDS6
- Kd [1]: 2.02 nM
- Kd [2]: 23.5 nM
- Kd [3]: 0.694 nM
- Kd [4]: 2.89 nM
- Kd [5]: 23.5 nM
- Kd [6]: 0.694 nM
- Kd [7]: 0.914 nM
- Kd [8]: 3.42 nM
- Kd [9]: 13.7 nM
- Kd [10]: 5.26 nM
- Kd [11]: 2.33 nM
- Kd [12]: 4.04 nM
- Kd [13]: 1.47 nM
- Kd [14]: 5.48 nM
- Kd [15]: 1.47 nM
- Kd [16]: 2.81 nM
- Kd [17]: 0.307 nM
- Kd [18]: 2.59 nM
- Kd [19]: 1.85 nM
- EC50 [20]: 12.2 nM
